From publication PMC8511952

Assays:
[1] = system: MBP-ERS2.5W WT (Homo sapiens); test: fluorescence anisotropy; details: unmodified in vitro transcript; FA: 5 nM labeled tRNA, 25 mM Tris-HCl pH 8, 50 mM NaCl, 1 mM MgCl2, room temperature, 30 min
[2] = system: MBP-ERSRC WT (Homo sapiens); test: fluorescence anisotropy; details: unmodified in vitro transcript; FA: 5 nM labeled tRNA, 25 mM Tris-HCl pH 8, 50 mM NaCl, 1 mM MgCl2, room temperature, 30 min

Substance: tRNAGlu(TTC)
- Kd [1]: 83.7 nM
- Kd [2]: 331 nM
